Measurements as given in the supplement of paper PMC7125110.
± gives the standard error. For some assays here: Fewer inactive variants are shown than the library holds.

B1: glmS ribozyme (parent)
chain: AUAAAAGCGCCAGAACUACAGAAAUGUAGUUGACGAGGAGGAGGUUUAUCGAAUUUUCGGCGGAUGCCUCCAAA

What was measured:
Details in all cases: with glucosamine-6-phosphate
glucosamine-6-phosphate [1] = variants of: B1; assay: kcat; higher = faster cleavage; RNA array
In short: (§1)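 Tiles of sequenced MiSeq chips were imaged over ~14 h at 37 °C. On them, barcoded ribozyme variants had been transcribed in situ by E. coli RNA polymerase and were tracked via a hybridised Cy3 probe while glucosamine-6-phosphate (40 μM to 10 mM) in HEPES/KCl/Mg(OAc)2 buffer flowed in. Per-tile medians, normalised to baseline and to non-cleaving reference variants, were fit to one- or two-exponential decays for kobs, and weighted Michaelis–Menten fits gave kcat and KM.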

glucosamine-6-phosphate [2] = variants of: B1; assay: KM; higher = weaker cofactor use; RNA array
In short: as §1

glucosamine-6-phosphate [3] = variants of: B1; assay: self-cleavage kobs at 40 uM GlcN6P; higher = faster cleavage; RNA array
In short: as §1

glucosamine-6-phosphate [4] = variants of: B1; assay: self-cleavage kobs at 160 uM GlcN6P; higher = faster cleavage; RNA array
In short: as §1

glucosamine-6-phosphate [5] = variants of: B1; assay: self-cleavage kobs at 640 uM GlcN6P; higher = faster cleavage; RNA array
In short: as §1

glucosamine-6-phosphate [6] = variants of: B1; assay: self-cleavage kobs at 2500 uM GlcN6P; higher = faster cleavage; RNA array
In short: as §1

glucosamine-6-phosphate [7] = variants of: B1; assay: self-cleavage kobs at 10000 uM GlcN6P; higher = faster cleavage; RNA array
In short: as §1

Variant | kcat (glucosamine-6-phosphate [1]) | KM (glucosamine-6-phosphate [2]) | self-cleavage kobs at 40 uM GlcN6P (glucosamine-6-phosphate [3]) | self-cleavage kobs at 160 uM GlcN6P (glucosamine-6-phosphate [4]) | self-cleavage kobs at 640 uM GlcN6P (glucosamine-6-phosphate [5]) | self-cleavage kobs at 2500 uM GlcN6P (glucosamine-6-phosphate [6]) | self-cleavage kobs at 10000 uM GlcN6P (glucosamine-6-phosphate [7])
A42G U69C | 0.0183 ± 0.0052 s⁻¹ | 599 ± 250 µM | 0.00116 ± 0.00032 s⁻¹ | 0.00336 ± 0.0014 s⁻¹ | 0.0132 ± 0.0044 s⁻¹ | 0.0132 ± 0.0041 s⁻¹ | 
U45A G59A | 0.00059 ± 0.00018 s⁻¹ |  | < 1e-05 s⁻¹ |  | 2.71e-05 ± 1e-05 s⁻¹ | 6.8e-05 ± 3.3e-05 s⁻¹ | 0.000234 ± 3.9e-05 s⁻¹
A15U G41A | 0.000124 ± 3.5e-05 s⁻¹ |  |  |  | 6.09e-05 ± 1.6e-05 s⁻¹ | 0.000147 ± 2.5e-05 s⁻¹ | 8.75e-05 ± 2.5e-05 s⁻¹
G44U C68U | 2.53e-05 ± 4.3e-07 s⁻¹ | 915 ± 100 µM | < 1e-05 s⁻¹ |  |  |  | 2.31e-05 ± 7.7e-06 s⁻¹
C8A C67A | < 1e-05 s⁻¹ |  |  | < 1e-05 s⁻¹ |  | < 1e-05 s⁻¹ | 
C10U C50A | < 1e-05 s⁻¹ |  | < 1e-05 s⁻¹ |  |  |  | < 1e-05 s⁻¹
U47G C67G | 0.000689 ± 0.00022 s⁻¹ |  | 7.66e-05 ± 1.4e-05 s⁻¹ | 0.000105 ± 1.9e-05 s⁻¹ | 0.000248 ± 2.3e-05 s⁻¹ | 0.000429 ± 5.2e-05 s⁻¹ | 0.000816 ± 9.6e-05 s⁻¹
U45G U46G | 0.00603 ± 0.0024 s⁻¹ |  | 7.27e-05 ± 1.4e-05 s⁻¹ | 0.000206 ± 5.5e-05 s⁻¹ | 0.000961 ± 0.00019 s⁻¹ | 0.00158 ± 0.00036 s⁻¹ | 0.00523 ± 0.00084 s⁻¹
G7U G13A | < 1e-05 s⁻¹ |  | < 1e-05 s⁻¹ |  |  | < 1e-05 s⁻¹ | 
C11U G37C U57A | 1.82e-05 ± 2.9e-06 s⁻¹ |  |  |  |  |  | < 1e-05 s⁻¹
A64G C71G | 0.000386 ± 8.2e-05 s⁻¹ |  |  | 6.24e-05 ± 2e-05 s⁻¹ | 0.000495 ± 0.00013 s⁻¹ | 0.000271 ± 2.9e-05 s⁻¹ | 0.000398 ± 5.8e-05 s⁻¹
G9A | 3.95e-05 ± 2.5e-06 s⁻¹ | 5140 ± 880 µM | < 1e-05 s⁻¹ | < 1e-05 s⁻¹ |  | 1.33e-05 ± 3e-06 s⁻¹ | 2.61e-05 ± 1.5e-06 s⁻¹
A12G G62C | < 1e-05 s⁻¹ | 151 ± 74 µM |  |  |  |  | < 1e-05 s⁻¹
U47C G63A | < 1e-05 s⁻¹ |  |  |  | < 1e-05 s⁻¹ |  | 
U56G U57G | < 1e-05 s⁻¹ |  |  |  |  |  | < 1e-05 s⁻¹
C11U U57A | 1.44e-05 ± 2.1e-06 s⁻¹ |  |  |  |  |  | 
G13A U31A G32A C50G C67G | 4.8e-05 ± 1.5e-05 s⁻¹ |  |  |  | 4.97e-05 ± 2.2e-05 s⁻¹ | 5.25e-05 ± 1.8e-05 s⁻¹ | 
C67A U69G | 4.96e-05 ± 1.7e-05 s⁻¹ |  |  |  | 6.63e-05 ± 1.6e-05 s⁻¹ | 6.57e-05 ± 1.3e-05 s⁻¹ | 

Variant | kcat (glucosamine-6-phosphate [1]) | KM (glucosamine-6-phosphate [2]) | self-cleavage kobs at 40 uM GlcN6P (glucosamine-6-phosphate [3]) | self-cleavage kobs at 160 uM GlcN6P (glucosamine-6-phosphate [4]) | self-cleavage kobs at 640 uM GlcN6P (glucosamine-6-phosphate [5]) | self-cleavage kobs at 2500 uM GlcN6P (glucosamine-6-phosphate [6]) | self-cleavage kobs at 10000 uM GlcN6P (glucosamine-6-phosphate [7])
U49A U55G | 1.38e-05 ± 6.5e-06 s⁻¹ |  |  |  |  |  | 
A6U A53U | 0.000209 ± 3.5e-05 s⁻¹ | 2570 ± 1100 µM |  |  |  | 0.000114 ± 1.6e-05 s⁻¹ | 0.000159 ± 2.3e-05 s⁻¹
U56C G60A | 1.14e-05 ± 1.1e-07 s⁻¹ | 1070 ± 61 µM |  |  |  |  | 
G29C U54G | 0.000894 ± 0.00025 s⁻¹ |  | 6e-05 ± 1.7e-05 s⁻¹ |  | 0.000289 ± 6.5e-05 s⁻¹ | 0.00051 ± 0.00013 s⁻¹ | 0.000918 ± 0.00014 s⁻¹
U54A U69A | 0.00011 ± 2.2e-05 s⁻¹ |  |  | 0.000107 ± 1.5e-05 s⁻¹ | 0.000109 ± 1.9e-05 s⁻¹ | 0.000141 ± 2.3e-05 s⁻¹ | 8.28e-05 ± 1.5e-05 s⁻¹
G41C A52U | 1.27e-05 ± 7.6e-07 s⁻¹ |  | < 1e-05 s⁻¹ | < 1e-05 s⁻¹ |  |  | 
U55A A64U | 0.000202 ± 3.2e-05 s⁻¹ | 4540 ± 1600 µM | < 1e-05 s⁻¹ |  |  | 7.6e-05 ± 1.1e-05 s⁻¹ | 0.000138 ± 1.5e-05 s⁻¹
U46G G66U | 0.000756 ± 0.00014 s⁻¹ | 2360 ± 740 µM |  | 3.38e-05 ± 1.2e-05 s⁻¹ | 0.000177 ± 2.9e-05 s⁻¹ | 0.000448 ± 8e-05 s⁻¹ | 0.000578 ± 8.8e-05 s⁻¹
A39U G66C C67A | 0.000462 ± 8.7e-05 s⁻¹ | 1570 ± 490 µM |  | 4.03e-05 ± 1.3e-05 s⁻¹ | 0.00015 ± 3.2e-05 s⁻¹ | 0.000248 ± 6.1e-05 s⁻¹ | 0.000455 ± 0.00013 s⁻¹
A15G U56A | 0.00941 ± 0.0033 s⁻¹ | 1700 ± 790 µM | 0.000313 ± 3.4e-05 s⁻¹ | 0.000554 ± 9.9e-05 s⁻¹ | 0.00267 ± 0.00031 s⁻¹ | 0.00536 ± 0.0015 s⁻¹ | 0.00825 ± 0.0011 s⁻¹
A12C U47G | 0.00307 ± 0.00048 s⁻¹ | 1400 ± 310 µM | 9.09e-05 ± 1.3e-05 s⁻¹ | 0.000267 ± 4.4e-05 s⁻¹ | 0.00106 ± 0.00014 s⁻¹ | 0.00247 ± 0.00041 s⁻¹ | 0.00245 ± 0.00036 s⁻¹
A12C U47C | 0.00284 ± 0.00039 s⁻¹ | 1840 ± 380 µM | 5.87e-05 ± 6.2e-06 s⁻¹ | 0.000185 ± 3.6e-05 s⁻¹ | 0.000953 ± 0.00013 s⁻¹ | 0.00187 ± 0.00022 s⁻¹ | 0.00226 ± 0.0002 s⁻¹
A48G C70U | 0.000237 ± 3.3e-05 s⁻¹ | 1840 ± 620 µM |  |  | 5.39e-05 ± 1.1e-05 s⁻¹ | 0.000179 ± 2.8e-05 s⁻¹ | 0.000192 ± 2.1e-05 s⁻¹
U31G A33U C70U | 9.54e-05 ± 1.9e-05 s⁻¹ |  |  |  |  |  | 7.8e-05 ± 2e-05 s⁻¹
C11U C16A | 0.000174 ± 7e-06 s⁻¹ | 1760 ± 190 µM |  |  | 4.38e-05 ± 1.9e-05 s⁻¹ | 0.000106 ± 2.2e-05 s⁻¹ | 0.000145 ± 2.9e-05 s⁻¹
G63A C70G | 3.27e-05 ± 9.7e-06 s⁻¹ |  |  |  | 4.94e-05 ± 1.3e-05 s⁻¹ | 3.19e-05 ± 9.4e-06 s⁻¹ | 
A42U U65G C68A | 2.17e-05 ± 1.1e-05 s⁻¹ |  |  | < 1e-05 s⁻¹ |  |  | 
U30C G66C | < 1e-05 s⁻¹ | 347 ± 120 µM |  |  | < 1e-05 s⁻¹ | < 1e-05 s⁻¹ | 
